Data published in US20250382390A1 (Chugai, published 2025).

Tests used:
[1] = molecular target: blood coagulation factor X (FX) (UniProt P00742 41-488, limits assumed); assay: cell-based or functional assay
[2] = molecular target: activated blood coagulation factor IX (FIXa) (UniProt P00740 47-461, limits assumed); assay: cell-based or functional assay
Sequence of activated blood coagulation factor IX (FIXa) (P00740 47-461 limits assumed): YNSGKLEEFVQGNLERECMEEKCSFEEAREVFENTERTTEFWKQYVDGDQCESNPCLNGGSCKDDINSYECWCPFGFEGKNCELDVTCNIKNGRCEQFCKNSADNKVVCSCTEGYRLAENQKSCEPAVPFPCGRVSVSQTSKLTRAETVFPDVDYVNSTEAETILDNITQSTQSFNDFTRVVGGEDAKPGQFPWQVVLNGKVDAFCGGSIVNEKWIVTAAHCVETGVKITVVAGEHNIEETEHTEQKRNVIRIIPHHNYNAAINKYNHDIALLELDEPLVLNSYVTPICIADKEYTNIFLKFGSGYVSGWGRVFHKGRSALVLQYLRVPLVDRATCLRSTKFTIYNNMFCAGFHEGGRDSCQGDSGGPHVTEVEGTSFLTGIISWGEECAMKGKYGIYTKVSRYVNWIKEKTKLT

Sequence of blood coagulation factor X (FX) (P00742 41-488 limits assumed): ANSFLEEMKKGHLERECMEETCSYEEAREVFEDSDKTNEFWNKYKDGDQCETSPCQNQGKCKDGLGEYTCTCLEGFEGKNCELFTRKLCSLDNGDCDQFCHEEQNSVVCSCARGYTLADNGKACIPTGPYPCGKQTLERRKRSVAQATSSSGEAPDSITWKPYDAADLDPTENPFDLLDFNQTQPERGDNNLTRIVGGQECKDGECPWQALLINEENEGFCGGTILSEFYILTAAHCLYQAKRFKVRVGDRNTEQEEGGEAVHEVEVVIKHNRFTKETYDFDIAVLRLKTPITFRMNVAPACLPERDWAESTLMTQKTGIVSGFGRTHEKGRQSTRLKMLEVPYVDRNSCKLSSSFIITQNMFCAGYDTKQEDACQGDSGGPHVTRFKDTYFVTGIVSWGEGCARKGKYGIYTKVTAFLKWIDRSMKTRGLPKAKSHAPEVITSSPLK

Row | Binder | biological activity relative to the Emicizumab standard solution (chromogenic assay: FXa produced in the presence of FIXa, FX and phospholipid) [1] [%] | biological activity relative to the Emicizumab standard solution (chromogenic assay: FXa produced in the presence of FIXa, FX and phospholipid) [2] [%]
1 | Q-CDR-Clipped Variants (variants of Emicizumab) (bispecific antibody, human IgG4 S228P, kappa, Q chain: R at the 61st position from the N terminus (Kabat 60), or YYR at the 59th to 61st positions (Kabat 58 to 60), deleted and the chain cleaved at the deletion site; the N-terminal and C-terminal fragments are joined via a disulfide bond) heavy 1: QVQLVESGGGLVQPGGSLRLSCAASGFTFSYYDIQWVRQAPGKGLEWVSSISPSGQSTYYRREVKGRFTISRDNSKNTLYLQMNSLRAEDTAVYYCARRTGREYGGGWYFDYWGQGTLVTVSSASTKGPSVFPLAPCSRSTSESTAALGCLVKDYFPEPVTVSWNSGALTSGVHTFPAVLQSSGLYSLSSVVTVPSSSLGTQTYTCNVDHKPSNTKVDKRVESKYGPPCPPCPAPEFLGGPSVFLFPPKPKDTLMISRTPEVTCVVVDVSQEDPEVQFNWYVDGVEVHNAKTKPREEQYNSTYRVVSVLTVLHQDWLNGKEYKCKVSNKGLPSSIEKTISKAKGQPREPQVYTLPPSQKEMTKNQVSLTCLVKGFYPSDIAVEWESNGQPENNYKTTPPVLDSDGSFFLYSKLTVDKSRWQEGNVFSCSVMHEALHNRYTQKSLSLSP heavy 2: QVQLVQSGSELKKPGASVKVSCKASGYTFTDNNMDWVRQAPGQGLEWMGDINTRSGGSIYNEEFQDRVIMTVDKSTDTAYMELSSLRSEDTATYHCARRKSYGYYLDEWGEGTLVTVSSASTKGPSVFPLAPCSRSTSESTAALGCLVKDYFPEPVTVSWNSGALTSGVHTFPAVLQSSGLYSLSSVVTVPSSSLGTQTYTCNVDHKPSNTKVDKRVESKYGPPCPPCPAPEFLGGPSVFLFPPKPKDTLMISRTPEVTCVVVDVSQEDPEVQFNWYVDGVEVHNAKTKPREEQYNSTYRVVSVLTVLHQDWLNGKEYKCKVSNKGLPSSIEKTISKAKGQPREPQVYTLPPSQEEMTKNQVSLTCLVKGFYPSDIAVEWESNGQPENNYKTTPPVLDSDGSFFLYSKLTVDKSRWQEGNVFSCSVMHEALHNHYTQESLSLSP light: DIQMTQSPSSLSASVGDRVTITCKASRNIERQLAWYQQKPGQAPELLIYQASRKESGVPDRFSGSRYGTDFTLTISSLQPEDIATYYCQQYSDPPLTFGGGTKVEIKRTVAAPSVFIFPPSDEQLKSGTASVVCLLNNFYPREAKVQWKVDNALQSGNSQESVTEQDSKDSTYSLSSTLTLSKADYEKHKVYACEVTHQGLSSPVTKSFNRGEC | 18 | 18
2 | Protected Disulfide Isoforms (isoforms of Emicizumab) (bispecific antibody, human IgG4 S228P, kappa) heavy 1: QVQLVESGGGLVQPGGSLRLSCAASGFTFSYYDIQWVRQAPGKGLEWVSSISPSGQSTYYRREVKGRFTISRDNSKNTLYLQMNSLRAEDTAVYYCARRTGREYGGGWYFDYWGQGTLVTVSSASTKGPSVFPLAPCSRSTSESTAALGCLVKDYFPEPVTVSWNSGALTSGVHTFPAVLQSSGLYSLSSVVTVPSSSLGTQTYTCNVDHKPSNTKVDKRVESKYGPPCPPCPAPEFLGGPSVFLFPPKPKDTLMISRTPEVTCVVVDVSQEDPEVQFNWYVDGVEVHNAKTKPREEQYNSTYRVVSVLTVLHQDWLNGKEYKCKVSNKGLPSSIEKTISKAKGQPREPQVYTLPPSQKEMTKNQVSLTCLVKGFYPSDIAVEWESNGQPENNYKTTPPVLDSDGSFFLYSKLTVDKSRWQEGNVFSCSVMHEALHNRYTQKSLSLSP heavy 2: QVQLVQSGSELKKPGASVKVSCKASGYTFTDNNMDWVRQAPGQGLEWMGDINTRSGGSIYNEEFQDRVIMTVDKSTDTAYMELSSLRSEDTATYHCARRKSYGYYLDEWGEGTLVTVSSASTKGPSVFPLAPCSRSTSESTAALGCLVKDYFPEPVTVSWNSGALTSGVHTFPAVLQSSGLYSLSSVVTVPSSSLGTQTYTCNVDHKPSNTKVDKRVESKYGPPCPPCPAPEFLGGPSVFLFPPKPKDTLMISRTPEVTCVVVDVSQEDPEVQFNWYVDGVEVHNAKTKPREEQYNSTYRVVSVLTVLHQDWLNGKEYKCKVSNKGLPSSIEKTISKAKGQPREPQVYTLPPSQEEMTKNQVSLTCLVKGFYPSDIAVEWESNGQPENNYKTTPPVLDSDGSFFLYSKLTVDKSRWQEGNVFSCSVMHEALHNHYTQESLSLSP light: DIQMTQSPSSLSASVGDRVTITCKASRNIERQLAWYQQKPGQAPELLIYQASRKESGVPDRFSGSRYGTDFTLTISSLQPEDIATYYCQQYSDPPLTFGGGTKVEIKRTVAAPSVFIFPPSDEQLKSGTASVVCLLNNFYPREAKVQWKVDNALQSGNSQESVTEQDSKDSTYSLSSTLTLSKADYEKHKVYACEVTHQGLSSPVTKSFNRGEC | 8 | 8
